Measurements published in article PMC11418112.
Like-named read-outs stand apart in the source and are kept apart here.

T1: SpoIIAA-P (phosphorylated SpoIIAA) (B. subtilis) (UniProt P10727)
T1 sequence (chain, phosphoserine at 58 (32P in the labelled tracer)): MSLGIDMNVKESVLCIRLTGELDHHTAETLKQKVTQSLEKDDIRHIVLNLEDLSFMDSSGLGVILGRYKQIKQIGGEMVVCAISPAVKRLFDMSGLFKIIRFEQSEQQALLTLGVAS

T2: SpoIIAA^R67T, phosphorylated (B. subtilis) (UniProt P10727)
T2 sequence (chain, phosphoserine at 58): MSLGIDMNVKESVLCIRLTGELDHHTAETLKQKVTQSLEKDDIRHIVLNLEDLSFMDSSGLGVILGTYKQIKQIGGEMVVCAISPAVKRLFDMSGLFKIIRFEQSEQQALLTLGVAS

T3: RsbV-P (phosphorylated RsbV) (B. subtilis) (UniProt P17903)
T3 sequence (chain, phosphoserine at 56 (32P)): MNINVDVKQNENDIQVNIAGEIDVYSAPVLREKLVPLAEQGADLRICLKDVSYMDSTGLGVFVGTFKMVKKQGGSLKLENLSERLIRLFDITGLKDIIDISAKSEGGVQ

B1: SpoIIE phosphatase domain (SpoIIE^590-827) (domain or fragment)
chain: SYRVSTGAAHAAKGGGLVSGDSYSMMELGARKYAAAISDGMGNGARAHFESNETIKLLEKILESGIDEKIAIKTINSILSLRTTDEIYSTLDLSIIDLQDASCKFLKVGSTPSFIKRGDQVMKVQASNLPIGIINEFDVEVVSEQLKAGDLLIMMSDGIFEGPKHVENHDLWMKRKMKGLKTNDPQEIADLLMEEVIRTRSGQIEDDMTVVVVRIDHNTPKWASIPVPAIFQNKQEIS
B2: SpoIIE^E675S (phosphatase domain, SpoIIE^590-827) (domain or fragment)
chain: SYRVSTGAAHAAKGGGLVSGDSYSMMELGARKYAAAISDGMGNGARAHFESNETIKLLEKILESGIDEKIAIKTINSILSLRTTDSIYSTLDLSIIDLQDASCKFLKVGSTPSFIKRGDQVMKVQASNLPIGIINEFDVEVVSEQLKAGDLLIMMSDGIFEGPKHVENHDLWMKRKMKGLKTNDPQEIADLLMEEVIRTRSGQIEDDMTVVVVRIDHNTPKWASIPVPAIFQNKQEIS
B3: SpoIIE^I723S (phosphatase domain, SpoIIE^590-827) (domain or fragment)
chain: SYRVSTGAAHAAKGGGLVSGDSYSMMELGARKYAAAISDGMGNGARAHFESNETIKLLEKILESGIDEKIAIKTINSILSLRTTDEIYSTLDLSIIDLQDASCKFLKVGSTPSFIKRGDQVMKVQASNLPIGISNEFDVEVVSEQLKAGDLLIMMSDGIFEGPKHVENHDLWMKRKMKGLKTNDPQEIADLLMEEVIRTRSGQIEDDMTVVVVRIDHNTPKWASIPVPAIFQNKQEIS
B4: SpoIIE^P752R (phosphatase domain, SpoIIE^590-827) (domain or fragment)
chain: SYRVSTGAAHAAKGGGLVSGDSYSMMELGARKYAAAISDGMGNGARAHFESNETIKLLEKILESGIDEKIAIKTINSILSLRTTDEIYSTLDLSIIDLQDASCKFLKVGSTPSFIKRGDQVMKVQASNLPIGIINEFDVEVVSEQLKAGDLLIMMSDGIFEGRKHVENHDLWMKRKMKGLKTNDPQEIADLLMEEVIRTRSGQIEDDMTVVVVRIDHNTPKWASIPVPAIFQNKQEIS
B5: SpoIIE^3X (triple mutation of E675S, I723S, and P752R; phosphatase domain) (domain or fragment)
chain: SYRVSTGAAHAAKGGGLVSGDSYSMMELGARKYAAAISDGMGNGARAHFESNETIKLLEKILESGIDEKIAIKTINSILSLRTTDSIYSTLDLSIIDLQDASCKFLKVGSTPSFIKRGDQVMKVQASNLPIGISNEFDVEVVSEQLKAGDLLIMMSDGIFEGRKHVENHDLWMKRKMKGLKTNDPQEIADLLMEEVIRTRSGQIEDDMTVVVVRIDHNTPKWASIPVPAIFQNKQEIS

What was measured:
[1] = biological target: T1, SpoIIAA-P (phosphorylated SpoIIAA) (B. subtilis)
[2] = biological target: T1, SpoIIAA-P (phosphorylated SpoIIAA) (B. subtilis); remark: listed apart in the source
[3] = biological target: T2, SpoIIAA^R67T, phosphorylated (B. subtilis)
[4] = biological target: T1, SpoIIAA-P (phosphorylated SpoIIAA) (B. subtilis); remark: listed apart in the source
[5] = biological target: T3, RsbV-P (phosphorylated RsbV) (B. subtilis)
[6] = biological target: T1, SpoIIAA-P (phosphorylated SpoIIAA) (B. subtilis); remark: listed apart in the source
[7] = biological target: T2, SpoIIAA^R67T, phosphorylated (B. subtilis); remark: listed apart in the source
[8] = biological target: T1, SpoIIAA-P (phosphorylated SpoIIAA) (B. subtilis); remark: listed apart in the source
[9] = biological target: T3, RsbV-P (phosphorylated RsbV) (B. subtilis); remark: listed apart in the source
[10] = biological target: T3, RsbV-P (phosphorylated RsbV) (B. subtilis); remark: listed apart in the source

KM for SpoIIAA-P as printed in the legend of Figure 4B (multiple turnover, 10 mM MgCl2) [1] [µM]	KM for SpoIIAA-P (multiple turnover, 10 mM MgCl2, Michaelis-Menten fit) [2] [µM]	kcat of SpoIIAA-P dephosphorylation (multiple turnover, 10 mM MgCl2, Michaelis-Menten fit) [2] [min^–1]	kcat/KM of SpoIIAA-P dephosphorylation (multiple turnover, 0.1 μM SpoIIE, 10 mM MgCl2) [2] [μM^–1 min^–1]	kobs of SpoIIAA^R67T dephosphorylation over time (0.1 μM SpoIIE, 10 mM MnCl2) [3] [min^–1]	kobs of SpoIIAA-P dephosphorylation over time (0.1 μM SpoIIE, 0.5 μM SpoIIAA-P, 10 mM MnCl2) [4] [min^–1]	KM for RsbV-P (single turnover, varying SpoIIE, 10 mM MnCl2, Michaelis-Menten fit) [5] [µM]	kcat of RsbV-P dephosphorylation (single turnover, 10 mM MnCl2, Michaelis-Menten fit) [5] [min^–1]	kcat/KM of RsbV-P dephosphorylation (single turnover, 0.15 μM RsbV-P, 10 mM MnCl2) [5] [μM^–1 min^–1]	fold decrease in activity toward SpoIIAA-P with manganese as the metal cofactor, against SpoIIE (Fig. S5) [6] [fold]	fold decrease in rate of dephosphorylation of SpoIIAA^R67T, against SpoIIE (Fig. S6) [7] [fold]	fold decrease in rate of dephosphorylation of SpoIIAA-P, against SpoIIE (Fig. S6) [8] [fold]	KM for RsbV-P (single turnover, varying SpoIIE, 10 mM MnCl2, Michaelis-Menten fit) [9] [µM]	kcat of RsbV-P dephosphorylation (single turnover, 10 mM MnCl2, Michaelis-Menten fit) [9] [min^–1]	kcat of SpoIIAA-P dephosphorylation (multiple turnover, 10 mM MgCl2, Michaelis-Menten fit) [1] [min^–1]	kcat/KM of SpoIIAA-P dephosphorylation (multiple turnover, 0.1 μM SpoIIE, 10 mM MgCl2) [1] [μM^–1 min^–1]	kcat/KM of RsbV-P dephosphorylation, fold change against SpoIIE (Fig. 4C) [10] [fold]	Binder
0.39	28.7	0.39	0.011	0.056	0.98	12.8	0.0086	0.00045	–	–	–	–	–	–	–	–	B1
–	18.3	0.02	0.001	0.086	0.23	95.7	0.063	0.00058	2	–	–	–	–	–	–	–	B2
–	29.1	0.036	0.001	–	–	47.6	0.018	0.00028	–	2	2	–	–	–	–	–	B3
–	38.6	0.15	0.0039	–	–	79.3	0.15	0.0035	–	–	–	–	–	–	–	–	B4
–	–	–	–	–	–	–	–	–	–	–	–	29.1	0.043	0.011	0.00011	5	B5
